The values that follow come from article PMC8591536, “DNA asymmetry promotes SUMO modification of the single‐stranded DNA‐binding protein RPA” (The EMBO Journal, 2021).

The target in series [1] is T1, Siz2∆CT K65E K66E (Saccharomyces cerevisiae? (budding …, UniProt Q12216 1-420, K65E;K66E)).
T1 sequence: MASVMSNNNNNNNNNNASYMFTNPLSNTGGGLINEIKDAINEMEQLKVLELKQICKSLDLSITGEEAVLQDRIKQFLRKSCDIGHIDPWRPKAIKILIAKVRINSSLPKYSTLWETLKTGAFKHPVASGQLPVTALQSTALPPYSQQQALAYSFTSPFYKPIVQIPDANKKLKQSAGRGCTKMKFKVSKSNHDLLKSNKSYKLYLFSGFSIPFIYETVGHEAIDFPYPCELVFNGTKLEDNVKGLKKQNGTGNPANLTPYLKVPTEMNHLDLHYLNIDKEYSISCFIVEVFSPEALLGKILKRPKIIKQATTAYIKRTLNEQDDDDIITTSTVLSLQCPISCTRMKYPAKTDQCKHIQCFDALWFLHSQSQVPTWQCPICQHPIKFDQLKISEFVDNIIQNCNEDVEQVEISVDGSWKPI
As to the kind of experiment: fluorescence polarization; FP: 20 mM HEPES pH 7.5, 125 mM NaCl, 0.1% Tween-20, 23°C, 50 nM DNA (RPA/SUMO-RPA on ss32: 1 nM DNA, plus 5 mM MgCl2, 1 mM DTT); EMSA: same buffer with 5 mM MgCl2 (Fig 8 also 1 mM DTT), 23°C, 6% gel in 0.5x TBE. To be noted: protein: recombinant; tags: His6-thioredoxin removed with TEV; label: 5' 6-FAM on strand 1; blunt. For orientation: Polarisation of emitted light reports the rotation of a fluorescent probe.

Series [2] deals with Siz2 full length;RPA (Rfa1/Rfa2/Rfa3) (Saccharomyces cerevisiae? (budding …, UniProt Q12216;P22336;P26754;P26755 1-726;1-621;1-273;1-122, |)). As to the kind of experiment: EMSA; Siz2 titrated into RPA-DNA; 5 mM MgCl2; FP: 20 mM HEPES pH 7.5, 125 mM NaCl, 0.1% Tween-20, 23°C, 50 nM DNA (RPA/SUMO-RPA on ss32: 1 nM DNA, plus 5 mM MgCl2, 1 mM DTT); EMSA: same buffer with 5 mM MgCl2 (Fig 8 also 1 mM DTT), 23°C, 6% gel in 0.5x TBE. To be noted: protein: recombinant;recombinant; tags: His6-Smt3 removed with Ulp1;noncleavable N-terminal His6 on Rfa2; copies: 1;1;1;1; label: 5' 6-FAM on strand 2 (fw20); 20 bp duplex, 3' overhang 32 nt (dT). Background: In EMSA bound probe runs differently from free probe, usually more slowly.
Chain of Siz2 full length;RPA (Rfa1/Rfa2/Rfa3) (Saccharomyces cerevisiae? (P22336 whole entry, chain 2 of 3): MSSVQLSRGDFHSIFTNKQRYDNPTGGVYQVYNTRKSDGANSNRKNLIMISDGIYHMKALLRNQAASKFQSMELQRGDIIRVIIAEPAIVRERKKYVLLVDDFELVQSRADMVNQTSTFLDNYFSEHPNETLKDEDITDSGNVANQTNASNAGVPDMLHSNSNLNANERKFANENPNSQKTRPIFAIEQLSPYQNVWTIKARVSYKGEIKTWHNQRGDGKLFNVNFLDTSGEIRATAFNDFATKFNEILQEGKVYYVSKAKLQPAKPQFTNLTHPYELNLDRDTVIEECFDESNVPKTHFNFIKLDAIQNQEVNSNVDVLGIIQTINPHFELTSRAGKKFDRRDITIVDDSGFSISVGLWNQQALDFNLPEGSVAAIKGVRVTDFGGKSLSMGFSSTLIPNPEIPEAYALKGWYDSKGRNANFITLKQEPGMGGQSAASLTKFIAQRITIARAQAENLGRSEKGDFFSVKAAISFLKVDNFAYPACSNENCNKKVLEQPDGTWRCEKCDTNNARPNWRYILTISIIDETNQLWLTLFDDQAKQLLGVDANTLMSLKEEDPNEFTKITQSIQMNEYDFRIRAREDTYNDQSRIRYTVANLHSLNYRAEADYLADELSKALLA
Chain of Siz2 full length;RPA (Rfa1/Rfa2/Rfa3) (Saccharomyces cerevisiae? (P26754 whole entry, chain 3 of 3): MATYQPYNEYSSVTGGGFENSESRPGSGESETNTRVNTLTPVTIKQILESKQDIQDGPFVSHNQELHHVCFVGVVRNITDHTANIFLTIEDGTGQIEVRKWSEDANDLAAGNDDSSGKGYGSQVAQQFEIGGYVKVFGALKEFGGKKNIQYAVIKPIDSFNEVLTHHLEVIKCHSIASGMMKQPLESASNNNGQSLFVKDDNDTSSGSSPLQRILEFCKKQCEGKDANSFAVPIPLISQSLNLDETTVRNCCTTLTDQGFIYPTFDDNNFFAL
Chain of Siz2 full length;RPA (Rfa1/Rfa2/Rfa3) (Saccharomyces cerevisiae? (P26755 whole entry, chain 4 of 3): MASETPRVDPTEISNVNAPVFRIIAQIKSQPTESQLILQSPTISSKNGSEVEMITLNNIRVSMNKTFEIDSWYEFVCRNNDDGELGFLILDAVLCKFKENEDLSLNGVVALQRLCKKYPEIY

B1: 6-FAM-ds20 (dsDNA)
DNA 1: GCTGTAGCTAGTTTTGCTTC
DNA 2: GAAGCAAAACTAGCTACAGC
As to B1, the binding result in series [1] was “no binding”.

B2: 6-FAM-ds20ss32 (mixed)
DNA 1: GAAGCAAAACTAGCTACAGCTTTTTTTTTTTTTTTTTTTTTTTTTTTTTTTT
DNA 2: GCTGTAGCTAGTTTTGCTTC
As for B2, the binding result in series [2] is “binds”.
